Measured values reported in the nanobody polyreactivity screen of Harvey et al. (2022).

Test: yeast display, Sf9 membrane polyspecificity reagent, FACS + sequencing; frameworks hold sequencing errors
In short: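 Galactose-induced (36–48 hours) yeast carrying a synthetic nanobody display library were exposed to 10% biotinylated, detergent-solubilized Sf9 membrane reagent at 4 °C for 1 hour. FACS followed streptavidin microbead enrichment, using low and high (top ~1%) gates for expression (anti-HA) and reagent binding (streptavidin). Colony PCR, MiSeq 2 × 250 sequencing and CDR-length filtering followed. Labels for polyreactivity reflect the gate of origin.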

| Sequence | polyreactivity (PSR sort gate) |
| --- | --- |
| QVQLVESGGGLVQAGGSLRLSCAASGRTFSYNAMGWYRQAPGKERELVARISSGGSTNYADSVKGRFTISRDNAKNTVYLQMNSLKPEDTAVYYCNAGSYVWEEDYCGQGTQVTVSS | high polyreactivity |
| QVQLVESVGGLVQAGGSLRLSCAASGGTFGYNAMGWYRQAPGKERELVAAIRVNGGSTYYADSVKGRFTISRDNAKNTVYLQMNSLKPEDTAVYYCAAESRVYRTSYWYGYWGQGTQVTVSS | high polyreactivity |
| QVQLVESGGGLVQAGGSLRVSCAASGFIFTGYTMGWYRQAPGKERELLAAVSYRGGSTYYADSVKGRFTISRDNAKNTVYLQMNSLKPEDTAVNYCNAVWSNFRLGYDYWGQGTQVTVSS | high polyreactivity |
| QVQLVESGGGLVQAGGILRLSCAASGRTFFVYAMGWYRPAPGTEWEGVAAISNTGGRTYYADSVKGRFTISRDYAKNTVYFQMNSLKPEDTAVYYCAAPYSGPYRSYEYYWGQGTHVTVSS | low polyreactivity |
| QVQLVESGGGLVQAGGSLRLSCAASAGIIRTYAMGWYRQAPGKEMELVAAITFSAGSTFYADSVKGRFTISRDNAKNTVYLQMNSLKPEDTAVYYCNKDGGGDSYWYDYWGQGTQVTVSS | low polyreactivity |
| QVQLVESGGGLVQAGGSLRLSCPASGSTFSWYAMGWSRQEPGKERELVAAISYSGGTYYADSVKGRFTISRDNAKNTVYLQKNSLKPEDTAVYYCAAQRTRYGYDYWGQGTQVTVSS | high polyreactivity |
| QVQLEESGGGLVHAGGSLRLSCAASGFIFKANAMGWYRQAPGKEREFVASISSSGGSTYYADSVKGRFTISRDNAKNTVYLHMNSLKPEDTAVYYCAAYTGYRHSRINLGYWGQGTQVTVSS | high polyreactivity |
| QVQLVESGGGLVQAGGSLRLSCAASGYIFLFYGMGWYRQAPGKERELVASITGTGGNTYYADSVKWRFTISRDNAKNTVYLQMNSLKPEDTAVDYCYADDGYSWGYAYYYSELDYWGQGTQVTVSS | low polyreactivity |
| QVQLVESGGGLVQAGGSLRLSCAASGRTFDGYDMGWYRQAPGQERELVAAINVVGGSTYYADSVKGRFTISRDNAKNTVYLQMNSLKPEDTAVYYCAADDYIYTVYSYTYEYWGQGTQVTVSS | low polyreactivity |
| HVQLVESGGGLVQAGGSLRLSCAASGRIYWANAKGRYRQAPGKERELVAAISYSGGTYYADSVKGGFTISRDNAKNTVYLQMNSLKPADTAVYFCAAVDRRDGTKRWGFDYWGQGTQVTVSS | high polyreactivity |
| QVQLVESGGGLVQAGGSLRLSCAASGSIFGVNAMGWYRQAPGKERELVAAISVSGGRTYYADSVKGRFTISRDNAKNTVYLLMNSLKPEDTAVYYCAATTYIWPYDYWGQGTQVTVSS | low polyreactivity |
| QVQLVESGGGLVQAGGSLRLSCAASGRIFQIYAMGWYRQAPGKERELVAAISNRGGSTYYADSVKVRFTISRDNAKNTVYLQMNSLKPEDTAVYYFNATTGYGGYNYWGQGTKVTVSS | low polyreactivity |
| QVQLVESGGGLVQAGGSLRLSCGASGFTIQRNAIVWSRQAPGKERELVAAITRGGSTYYADSVKGRFTISRDNAKNTVYLQMNSLKPEDTAVYYCAKRIFSSYIGYGYWGQGTQVTVSS | high polyreactivity |
| QFQLVESGGGIVQAGGRLRLSCAASGSTFFGYAMGWFRQAPGKVRELVAAISSGGSTYYADSVKGRFTISRDNAKNTVYVQMNSLKPEDTAVYYCAAYSYPKKYGYWGQGTQVTVSL | high polyreactivity |
| QVQLVESGAGLVQAGGSLRLSCAASGRTFIGNAMGWYRQAPGKERELVAAISSSGGNTYYADSVKGRFTISRDNAKNTVYLQMNSLKPEDTAVYYCAVEVRTFVTYGRREYYWGQGTQVTVSS | high polyreactivity |
| QVQLVESGGGLVQAGGSLRLSCAASGRIFYDYAMGWYRQAPGKERELVAAISKGGGSTYYADSVKGRFTISRDNAKNTVYFQMNSLKPEDTAVYYCASSTSHTTDTRYDYWGQGTQVTVSS | low polyreactivity |
| QVQLVESGGGLDQEGGSLRLSCAASGSIFFWNDMGWYRQAPGKERELVAAISWSGGSTSYADSVKGRFTISRDNAKNTVYLQMNSLKPEDTAVYYCAAEYTYGSPYDYWGQGTQVTVSS | low polyreactivity |
| QVQLVESGGGLVQAGGSLRLSCAASGRIFQIYAMGWYRQAPGKERELVAAIRSGSNTNYADSVKGRFTISRDNAMNTVYLQMNSLKPEDTAVYYCNALYTSLRKYNYWGQGTQVTVSS | low polyreactivity |
| QVQLVESGGGLVQAGGSLRLSSAASGSTFIRYAMGWYRQAPGKERELVAAISTSGGSTYYADSVKGRFTISRDNAKNTVYLQMNSLKPEDTAVYYCNAVSRSYRYAGVPGFHYDYWGQGTQVTVSS | high polyreactivity |
| QVQLVESGGGLVQAGGSLRLSCAASGSTFGINAMGWYRQAPGKERELVASITRRGGSTYYADSVKGRFTISRDNAKNTVYLQMNSLKTEDTAVYYFNKTYRYGTPLYDYWGQGTQVTVSS | high polyreactivity |
| QVQLVESGGGLVQAGGSLRLSCAASGFTFNGKSMGLYRQAPGKERELVAAISYSGGSTYYADSVKGRFTISRDYAKNTVYLQMNSLKPEDTSVYYCAADRTAYSVRGYTKVHSGHDYWGQGTQVSVSS | low polyreactivity |
| QVQLVESGGGIVQAGRSLRVSCADSGSAFPRYDMGWYRPAPGKERELVAAISRGGSTNYADSVKGRFTLSRDNATNSVSLQMFCLIPVDPAVYYCAAQIFESAYGIVYWGQRTQVTVSS | low polyreactivity |

| Sequence | polyreactivity (PSR sort gate) |
| --- | --- |
| QVQLVESGGGLVQAGGSLSLSCAASGRTFVKNTMGWYRQAPGKERELVAAISSSGGSTYYADSVKGRFTISRDNAKNTVYLQMNSLKPEDTAVYYCAVSYPYKHAGGWYAYNYWGQGTLVTVSS | high polyreactivity |
| QVQLVETGGGLVQAGGSLRLSCAASGRTFKFYAMGWYRQAPGKEREFVAVINRSGVNTHYADSVKVRFTISRDNAKNTVYLQMNSLKPEDTAVYYCAKYVYPLDHVAGYDYWGQGTQVTVSS | low polyreactivity |
| QVQLVESGGGLVQAGGSLRLSCAASGRIIYYAMGWYRQAPGKERELVAAITRNGGTYADSVKGRFTISRDNAKNTVYLQMHRLKPEDTAVYYCNADPDFGDDYWGQGTQVTVSS | low polyreactivity |
| QVQLVESGGGLVQAGGSLRLSCAASGRTFQYNAMGWYRQAPGKQWELVAAISSSGGSTYYADSVKGRFTISRDNAKITVYLKMNSLKPEDTAVYYCNAYSQSWNFYGDGDYWGQGTQVTVSS | low polyreactivity |
| QVQMQESGGGTVMAGGSLRLSCAASGTIFVRLDMGSYRQAPGKEREFVATIGSGSSTYYADSVKGSFTISRDNVNKSVYLQMNSLKPEDTAVYYCAVSAAEQCRDYYWDQGTQVTVSS | low polyreactivity |
| QVHLVESGGGFVQAGGSLRLICAASGITFGIYVMGWSRQAPGKERELVATISRSDDNSYYADSVKGRFTISRDNAKNTVYLQMNSLKPEDTAVYYCAADGVISAWYSSRDDYWGQGTQVTVSS | low polyreactivity |
| QVQLVESGGGLVQAGGSLRLSSAASGFIFFRYARGWYRQEPGKEREFVAAISWSGGRTYYADSVKGRFTISRDNAKNTVYLQMNSLKPEDTAVYYCAAYPSYWGYGYPGHDYWGQGTQVTVSS | high polyreactivity |
| QVQLLESGGGLVQAGGSLRLSCAASGRTFRSYVMVWYRQAPGKERELVAAISRSGGSTYYADSVKGRFTISRDNAKNTVYLQMNSLKPEDTAVYYCATKRVLTGYDSWGQGTQVTVSS | high polyreactivity |
| QVQRVESGGGLVQAGGSLRLSCAASGSIFEGYAMGWYRQAPGKQRELVARITSDDDSTYYADSVKGRFTISRDNAKFSVYLQMNSLIPEDTAVYYCNADYYWTSLAMDSWGQGTQVTVCS | low polyreactivity |
| QVQLVESGGGLLQAGGSLRLSCAASGRIFVVYAMGWYRQAPGKERELVASITWRGGSTYYADSVKGRFTISRDNAKNTVYLQMNSLKPEDTAVYYCAAELDVYVSIGSRFHFDYWGQGTQVTVSS | low polyreactivity |
| QVQLVESAGGLVQAGGSLRLSCAASGRIFRYYVMGWYRQAPGKEREFVASISGRGASTYYADSVKGRFTISRDNAKNTVYLQMNSLKPEDTAVYYCNADVWLLSYFPEYDYWGQGTQVTVSS | low polyreactivity |
| QVQLVESGGGIVQAGVSLRLSCAASGITFIRYAMGWYRQAPGKERELVAAISSSGGSTYYADSVKGRFTISRDNAKNTVYLQMISLKPEDTAVYYCAARIPDRQDGYGYWGQGTQVTVSS | high polyreactivity |
| QVQLVESGGGLVQAGGSLRLSCAASGRIFIRNAMGWYRQAPGKERELVAAITSDGGSTDYADSVKGRFTISRDNAKNTVYLQMNSLIPEDTAVYYCAATGSGYDYWGQGTQVTVSS | low polyreactivity |
| QVQLVESGGGLVQAGGSLRLSCAASGFTFDTNAMGWYRLAPGKERELVAAISRIGGRPYADSVKGRFTISRDNAKNTVYLQMNSLKPEDTAVYYGAADTTGYPYGYDSWGQGTQVTVSS | low polyreactivity |
| QVQLVESGGGLVQAGGSLRLSCAASAFTLARYAMGWYRQAPGKERELVAAITKRGGSTYYADSVKGRFTISRDNAKKTVYLQMNSLKPEDTAVYYCNGASRYSQTFEFDYWGQGTQVTVSS | high polyreactivity |
| QVQLVESGGGLVQAGGSLRLSCAASGSISRYYAMGWYRQAPRKERELVAAISSNGGSTYYADSVKGRFTISRDNAKNSVYLQMYSLKPEDTAVYYCNAFYVGYIRYWTNKLVDYWGQGTQVTVSS | high polyreactivity |
| QVQLVESGGGLVQAGGSLRLSCAASGFIFRTYAMGWYRQAPGKERELVATITGDGSTNYADSVKGRFTISRDHAKNTVYLQMNSLKPEDTAVYYGSRDDRLAGDYWGQGSQVTVSS | low polyreactivity |
| QVHLVESGGGLVQAGGSLRLSCAASGSTFYIYAKGWYRQAPGKERELVAAIDWTGSTYYADSVKGRFTISRDNAKNTVYLQMNSLKPEDPAVYDCAAYYDLEDDSYRLNSWGQGTQVTVSS | high polyreactivity |
| QVQLVESGGGLVQAGGSLRLSCAASGRTFGNNAMGRYRLAPGKVWELVAAINWSGASTYYADSVKGRFTISRDNAKNTVYLQMNSLKPEDTAVYYCAADYSYIYGFDYWGQGTQVTVSS | low polyreactivity |
| QVQLVESGGGLVQAGGSLRLSCAASGSTFWFNAMGWYRQAPGKERELVAAIDSGGGTYYADSVKGRFTISRDNAKNTAYLQMNSLKPEDTAVFYCNASHPPKAELDYWGQGTQVTVSS | low polyreactivity |
| QVQLVESGGGLVQAGGSLRLSCAASGSIFYVYAMGGYRQAPGKERELVAAISRRGARTYYADSVKGRFTISRDNAKNTVYLQMNSLKPEDTAVYYCNADQYYTVGYSAEYEYWGQGTQVTVSS | low polyreactivity |
